Test results reported in the supplement of paper PMC11502859.

System: HEK293T
Assay: median enrichment of reporter reads in eGFP-reduced (low/intermediate) vs eGFP-high sorted cells (eGFP-extension fusion abundance) (ratio); higher = stronger loss of eGFP-fusion protein abundance (more destabilising extension)
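Further: lentiviral eGFP-IRES-mCherry reporter pool sorted by FACS 96 h post-transduction, gated on mCherry-high cells, Illumina read counts normalized per million, median across four biological replicates.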

EIF2AK2, sequence (chain, as listed by the source): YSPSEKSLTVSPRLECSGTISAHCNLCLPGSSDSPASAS

| Substance | median enrichment |
| --- | --- |
| EMCNLISLFHHNHDRW [C9orf72] | 9.03 |
| YWAPSL [MSN] | 2.04 |
| YSCVVSLLEIELA [DGKB] | 7.27 |
| LKELIFNFSLQTGQH [TAF7] | 6.43 |
| KPVLGPSVKYP [GNPDA1] | 0.312 |
| CSLG [MAGEC2] | 0.658 |
| WGHQSPQWTDAFDGQDEGQGHWSEGVDKTAAI [TBC1D21] | 0.0629 |
| LPLKTVPLRDPKTLGIDTWASGRAQPWAGGLLRTQRCAWNHS [SLC4A3] | 31 |
| LGLGRAHSAG [ATPAF2] | 10 |
| CESVHQTKCGKNTKKT [GYPA] | 0.413 |
| RGRLNPPNINSHPSLHSCLPLFTFILRVQKFQVSFELYFVCQFHAYFSFIRES [CNTD1] | 5.36 |
| KQGRWERDCLLPLLSSSCLEVEAV [GRM6] | 6.27 |
| WRGEGRPAVDSLILGRSLGCAAISFCECANTKLSRAKL [SLC25A25] | 6.74 |
| KKKKKKKKK [Lys09] | 3.65 |
| EDPGTQRLCPPRPQSVPITLTVLHTVHAPLLAFFREKENFTTGSH [SERTAD2] | 6.58 |
| SVPRPCQPCCTGCRHCTRCEGSTPAQAEFLGSTSPAAWGTGIAHSVNGSTPAWAESLGSDLAAWGESLGSVLAAWGAGIAQSM [WNT9A] | 7.93 |
| YHAPRLEGRNSRLQNRHEMVWPCDYTL [TRMT44] | 1.98 |
| YRA [SYNE2] | 0.591 |
| SKGQLPGKTRF [PHLDA1] | 1.67 |
| YVCAEESKTPFRATIPQ [SLC22A25] | 1.62 |
| QVRLVQEHKLPPSPSPPPPGPGLKQPEDSPRGWLSPAAGSAFTWGGGAGLTLNPPPRQVGEGSHHSKCL [SLC2A4RG] | 2.26 |
| GLKFCKVLRGPEHVSATRGSGQHCVLRLVSYLRLPSICVQRPRLQPSQHSAGSHAPCPHPGQQTPARVCAPSDCTPALITHRH [SLC29A4] | 5.42 |
| LTHAHAPLTLKRIHNSLEKHPHVCCRTHSSQLRPIPVTTASPPTPVTTASPPTPVTTASPPTALSPRPMSACPRAQDFLTGMW [SSH3] | 3.55 |
| QQQQQ [Gln05] | 0.381 |

| Substance | median enrichment |
| --- | --- |
| QELTQQKRTASIPHAFTHQIILKNSDPQVF [TOR3A] | 13.3 |
| SPQDQGKEDGRTGAKLVGGRGGGGRDDRPWMCPQGPRSEVSTVLPARAPVPPLAATPSPIISFAPRLLRGAPVLAPAPTSAPD [FOXP3] | 1.18 |
| EVGVRSPYSACCPGCAAQLDSASQHLPPRSFLLFIPIFTPKTSLSLFTPPKPLSHAGPLKPQLPTILREHPLPSLPFPALKPA [GSTM2] | 5.73 |
| KKKK [Lys04] | 0.575 |
| RSSTRDWKDHKLKWRKDPQDT [FCGR3B] | 2.73 |
| AGAQPLPGMRLSADGETATQSFGLCVCVCVCVCVCAHPRVPVCVRILPPGAEVPWVSPLLCNGLLTGAAAPRGLCSGGTQCRM [FGFR3] | 6.29 |
| SSSSSS [Ser06] | 0.35 |
| LVISSVFCFLF [MS4A1] | 7.46 |
| CRVAFFLL [GTF2A1] | 11 |
| LPVRPAQPGPGPRFSTRTVHPASRSL [DLGAP3] | 17.6 |
| QRKKRKTALGLAYGLRGCCC [WEE2] | 6.66 |
| YKNQNGLR [ADGRB3] | 0.651 |
| CLQGSKLQR [OR7A5] | 3.17 |
| PPPPPPPP [Pro08] | 1.83 |
| SALELLNLCPWGFHPNQCQGPPLPPSK [ACY1] | 2 |
| WHHLIDYGTRKSEGFHIR [PLPP6] | 7.61 |
| QNIQVINELCYGIIALLYAG [CC2D2B] | 8.94 |
| SDLVQHGNDSYRLIQQLTLRQVVLFQRPLFLPKPCYELNQMCQVFSGVLSNILFSCMGTSPLQMTMLMDLFIYLFKSLFS [IFNA8] | 8.28 |
| YAQPGPQIRSAQQRPGPSSRTTRPHHASCSQTQN [CCDC27] | 0.132 |
| QFPTSELGNCTHSNPACSAS [MAS1L] | 0.296 |
| SEVPDMGPICSSSQLLSLTSHHGGSSHLLWICSL [CIAPIN1] | 4.18 |
| RVEPTSLPSQQARN [TMEM143] | 0.919 |
| YASRRRRRRGRAAGGTAQATQGRPLRPGGQGGRPASGDRLPPGLWQDVPSEGYFEEPPGPGDREAPVSSMNALPRTQARASGV [MSANTD1] | 1.01 |
| RAAQKETTKPLTVVTLDKETPVA [CAPRIN2] | 45.5 |

| Substance | median enrichment |
| --- | --- |
| CKKKKKKALAFSCLFC [PCDH17] | 46.4 |
| TTTTTTTTT [Thr09] | 0.552 |
| CSLHLGGGSLGKSTQTCTTVQQQGSLLPAVPPPPVYTT [SEZ6] | 19.3 |
| LKNKSPLQNTPPSHSAPQLPTTARLSSFASVASPALHALAGTVAAAFSCSVMPSSCLKQKKIMHCVF [STXBP1] | 6.42 |
| RRRR [Arg04] | 0.344 |
| SFAFIF [CHST9] | 8.28 |
| ELPGLGGLSGIAMLVAREKKSTANKTTQTKPSTA [FOXA1] | 1.47 |
| RGALVSPQSSQAAGSPRQLSGHPVPSAPPSAALCSRPAPPSRGCLGLFTCFPSHINTVFPLLSYNSPTAHSPPH [TNFSF12] | 8.64 |
| SATCPKA [NOL4L] | 0.348 |
| SVVPLFH [KIF22] | 0.762 |
| RVSSPTRSLARPLALQLLFGGGIPHSFLGTHSHAHCRSINSNPHFRPKIMRPHLVSTFPRPCSKPNPFLPSGSQNLLSPTATT [RNF39] | 6.99 |
| SGEMCVTINSKMGKPPSPCI [AK3] | 0.494 |
| QSTF [ST8SIA4] | 0.477 |
| SCPPRCSQGNLAPRS [ZIC4] | 0.982 |
| YPDPHRCCDLFVLSTVE [FGF14] | 9.33 |
| YLRTLPFFPLSSLPLPFLPIYPFPSSKSTQGEENKMTTQDLVAKILHSKSSFV [FGF12] | 9.45 |
| LFSTEIQNISLTALRCVC [NIPSNAP3B] | 6.41 |
| LHGPCMLINASSEM [TMEM205] | 5.79 |
| KMDPCEIYHSLVSPSFLSFLNSTFWRDFPK [OR9Q2] | 3.34 |
| QVISQSIYVLSNM [PSMA1] | 7.19 |
| QGLEGQEVGVRSPYSACCPGCAAQLDSASQHLPPRSFLLFIPIFTPKTSLSLFTPPKPLSHAGPLKPQLPTILREHPLPSLPF [GSTM2] | 5.62 |
| YYYY [Tyr04] | 4.17 |
| KHLHVLSNFACPFSSVSE [CYB5R2] | 2.44 |
| WGSEPRPSGFTCLVKAFVMISLN [KRTAP5-10] | 10.1 |

| Substance | median enrichment |
| --- | --- |
| QEHPHDIAFGGAPVACRIACGLCNLLRFKTDGHMCQWGSLSPGPKKQGTKFKTLASSQPLKPWPPEFPFLSLSFYFFYFYFYF [JAK3] | 7.54 |
| LTYLGRLGK [APBB3] | 9.37 |
| WWPRIPIEQHKARLG [RNF216] | 26.7 |
| PTVRPQRGQDKPCPDAFDRQLCVLVDRCRNKEEMESAPEKLQIQARREVLRKDLQQLHIHINQHNTGWRPNSGVHKRRRDVVG [H6PD] | 5.25 |
| YVCCLPSPSGHTLLYHTTGLDSGWRQIDTV [LIG3] | 5.91 |
| EIF2AK2 | 2.12 |
| SGFLKLSSKLLRLFK [FABP12] | 7.41 |
| YVLCYNGVIVPKCPH [OR51F2] | 5.24 |
| QFLGLFEYSIPMGIYFLSCH [HHIP] | 13.7 |
| WWF [LRRCC1] | 1.79 |
| RSHFCQMLPSTINALGGRRGRQ [ETHE1] | 12.6 |
| YLSVYLSIYLSIYLSIYVYLSCIYTRL [AK9] | 9.52 |
| EGTLQSLFHIFKPH [HMCN1] | 7.78 |
| LYKKKYCPYQKQILLCTF [RHOT1] | 9.77 |
| YDGHISFIGE [CFLAR] | 0.753 |
| SGLLALTLQPTLAVWPSPGSFPAPLPLFPVLLNSPSWRVQALGMGGTRPHSFHRALRPDTADQPHSAQEAASGVGAQRGTAAS [BAP1] | 1.74 |
| YPPAQPRTDMNIGWTEVASV [PIP4K2A] | 5.83 |
| SVAMVKVSVAAAAMASRRRCWDCFALEPASGCPLQWLCYCMDCILDFMCMSQ [DYNLL2] | 11 |
| WGSAQISVVRKPVPLGFSPHTTACRTLEWTQSSH [CA6] | 7.98 |
| WPYWLTPENGLLLDGHGRINFSKMFWVGVE [ACTL8] | 1.37 |
| KKKKKK [Lys06] | 1.5 |
| QPHGAVLLMLEAS [ESPL1] | 6.52 |
| QTSLHFILF [FABP1] | 24.1 |
| QSVISFICCINV [LRP1B] | 11.7 |

| Substance | median enrichment |
| --- | --- |
| WPMLNTHV [NABP1] | 0.435 |
| RILDQ [SH3KBP1] | 1.07 |
| LVC [SYT16] | 1.2 |
| WAWTLEKEARSQPLAGQGRRPQEPSPPLLCVGTGGPWPVPGHSGQGPRDISTRSWRAVRIHSACPALAGQRQGRTFGKTKTVG [TCF15] | 5.34 |
| CGILGDSPREELGC [CEP85] | 0.759 |
| LALLSRWGLPETVCFVSPTTITATWLLPCGRRVTG [SF3B3] | 34.6 |
| WLVTEDEDNSITKLF [CD58] | 17.6 |
| RRGEGRPAVDSLILGRSLGCAAISFCECANTKLSRAKL [SLC25A25] | 8.98 |
| WGHIQDNYTFAQPGIQMKVKMLEELVSRIDEQVHRHLDQHEVRYLQFAFRWMNNLLMREVPLRCTIRLWDTYQSEPDGFSHFH [TBC1D22A] | 11.6 |
| YILDLFYFLWSKFWCD [MIER1] | 7.56 |
| REFYRDAEKKERSEAIYAYGSRKR [CHCHD7] | 7.02 |
| SISL [NPAS4] | 0.469 |
| EPSPPLLCVGTGGPWPVPGHSGQGPRDISTRSWRAVRIHSACPALAGQRQGRTFGKTKTVGDRVCVYLCVSVSVCERELVSLK [TCF15] | 6.39 |
| LKLQLNRGSRKLLSLRGGV [MIP] | 14.1 |
| YSFKSNRIIFHLAVVRSN [SS18L2] | 12.1 |
| QVLSPNNFFLSEVKGLKISWK [ENOSF1] | 10.9 |
| REPKGDWALWQLLSHTVDHSSPSCSLSSSECGW [TRIM66] | 12.8 |
| SRPWSESAPVGILPPPCWPPFSPQPLR [PGAP3] | 14.1 |
| YKRSLADPSL [KCNQ3] | 0.769 |
| YRGRPGTGGMSCRPQPGRTPHSLSRQRGQNRPAQPWSPLHSPRPLAPALPTSSAWSEGAARAQQRRGGRLWPPTSRPVPAGTA [ARHGAP39] | 7.75 |
| NNNNNNN [Asn07] | 0.297 |
| WGTKPRRIPPQ [CA10] | 0.682 |
